Laboratory results as given in US9968687B2, “Anti-DLL3 antibody drug conjugates” (AbbVie Stemcentrx LLC, priority 2013, dated 2018).

Target: T1, recombinant human DLL3-Flag (Homo sapiens, UniProt Q9NYJ7)
T1 construct: Based on the apparent size of the DLL3 antigen (where the ECD is approximately 56 kD); Flag; purchased Adipogen International
T1 sequence (Q9NYJ7 27-492 limits assumed): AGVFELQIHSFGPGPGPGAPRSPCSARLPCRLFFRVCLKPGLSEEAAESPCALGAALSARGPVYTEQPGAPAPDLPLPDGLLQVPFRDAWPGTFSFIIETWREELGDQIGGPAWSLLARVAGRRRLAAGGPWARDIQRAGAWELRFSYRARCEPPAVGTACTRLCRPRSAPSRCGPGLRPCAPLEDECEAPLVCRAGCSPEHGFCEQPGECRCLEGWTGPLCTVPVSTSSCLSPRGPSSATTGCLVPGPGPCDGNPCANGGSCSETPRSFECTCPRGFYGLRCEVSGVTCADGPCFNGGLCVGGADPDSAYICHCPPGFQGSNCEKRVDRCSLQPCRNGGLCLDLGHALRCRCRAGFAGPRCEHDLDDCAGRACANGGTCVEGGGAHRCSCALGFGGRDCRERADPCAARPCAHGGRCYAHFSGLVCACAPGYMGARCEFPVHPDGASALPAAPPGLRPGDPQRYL
Experiment: Antibody binning by competition on ForteBio RED
Format: binding
From the text: As to antibody binning, a ForteBio RED was used per manufacturer's instructions to identify competing antibodies that bound to the same or different bins. Briefly, a reference antibody (Ab1) was captured onto an anti-mouse capture chip, a high concentration of non-binding antibody was then used to block the chip and a baseline was collected. Monomeric, recombinant human DLL3-Flag (Adipogen International) was then captured by the specific antibody (Ab1) and the tip was dipped into a well with either the same antibody (Ab1) as a control or into a well with a different test antibody (Ab2). […] If no further binding occurred, as determined by comparing binding levels with the control Ab1, then Ab2 was determined to be in the same bin. As known in the art this process can be expanded to screen large libraries of unique antibodies using a full row of antibodies representing unique bins in a 96-well plate. […] Based on the apparent size of the DLL3 antigen (where the ECD is approximately 56 kD) and the resolution of the binning methodology employed, it is believed that the nine identified bins represent the majority of the bins present on the DLL3 extracellular antigen.

- bin relation to other antibodies: found not to bin with SC16.34 or SC16.56
B1: SC16.23: murine anti-DLL3 monoclonal antibody, sequences in FIGS. 3A and 3B (antibody, V domains shown)
VL: QIVLTQSPAIMSASPGEKVTLTCSASSSVSSRYLYWYQQKPGSSPKLWIYSTSNLASGVPARFSGSGSGTSYSLIISSMEAEDAASYFCHQWSNYPLTFGAGTKLELK
VH: QVTLKESGPGILQPSQTLSLTCSFSGFSLSTSNTGIGWIRQPSGTGLEWLAHIWWNDDKYYNPSLKSRLTISKETSNNQVFLKITNVDTADTASYFCVQIGRDYSNYAWYFDVWGAGTTVTVSS
